Patent US20220002410A1 (Merck Sharp & Dohme, published 2022)

Target: MK-3475-596 (MK-3475 derivatized with fluorescent dye Dylight-596) (Dylight-596 amine-reactive dye, reacts preferentially with the primary amine of lysine residues (sites not given))
Assay: FRET between Dylight-488 labelled Ab6 and Dylight-596 labelled MK-3475, recorded for 72 hours (ex 488 nm, em 620 nm)
Description: Dylight-488® or Dylight-596® are amine-reactive dyes, which react preferentially with the primary amine of lysine residues. […] Due to the sensitivity of the assay, the molar concentration of the fluorogenic tagged proteins is either 3.2 uM or 800 nM depending on the protein ratio. FRET fluorescence signals are recorded for 72 hours at λₑₘ=620 nm (λₑₓ=488 nm) (FIG. 49).
If protein interaction occurs, we expect to see a growth of the fluorescence signal as a function of time (FIG. 49). The interaction is evaluated by the rate of growth of the fluorescence and the maximum of the fluorescence signal. The absence of interaction (or a reduced interaction) is characterized by i) a low rate of the growth of the fluorescence signal, and ii) a low plateau maximal. […] The fluorescence baseline is measured in the absence of labeled protein.

Chain of MK-3475-596 (MK-3475 derivatized with fluorescent dye Dylight-596) (Dylight-596 amine-reactive dye, reacts preferentially with the primary amine of lysine residues (sites not given)) (VH, as listed by the source, chain 1 of 2): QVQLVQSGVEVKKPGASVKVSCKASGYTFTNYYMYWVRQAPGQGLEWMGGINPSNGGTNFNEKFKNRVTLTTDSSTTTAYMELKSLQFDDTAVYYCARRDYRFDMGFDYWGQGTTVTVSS
Chain of MK-3475-596 (MK-3475 derivatized with fluorescent dye Dylight-596) (Dylight-596 amine-reactive dye, reacts preferentially with the primary amine of lysine residues (sites not given)) (VL, as listed by the source, chain 2 of 2): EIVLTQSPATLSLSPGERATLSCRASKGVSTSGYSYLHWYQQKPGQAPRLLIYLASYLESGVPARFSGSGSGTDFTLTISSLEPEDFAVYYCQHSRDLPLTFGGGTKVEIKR

B1: Ab6-488 (Ab6 derivatized with fluorescent dye Dylight-488) (antibody, human IgG4 S228P, kappa, V domains shown)
VH: QMQLVQSGPEVKKPGTSVKVSCKASGYTFTDYNVDWVRQARGQRLEWIGDINPNDGGTIYAQKFQERVTITVDKSTSTAYMELSSLRSEDTAVYYCARNYRWFGAMDHWGQGTTVTVSS
VL: DIVMTQTPLSLSVTPGQPASISCKASQSLDYEGDSDMNWYLQKPGQPPQLLIYGASNLESGVPDRFSGSGSGTDFTLKISRVEAEDVGVYYCQQSTEDPRTFGGGTKVEIKR
modifications: Dylight-488 amine-reactive dye, reacts preferentially with the primary amine of lysine residues (sites not given)
binding result: no binding
